Square brackets hold non-standard residues; d marks the D form. Ends that are not written are not given here. * marks the point of attachment. EDDnp = O=[N+]([O-])c1ccc(NCCN*)c([N+](=O)[O-])c1; 2Abz = Nc1ccccc1C(=O)O
Key:
[1] = target: His57 (UniProt position 70, VMSAAHCVANV); assay: kinetics; settings: 37 °C, Constant ionic strength buffer system containing 140 mM NaCl, 25 mM glycine, 25 mM acetic acid, 25 mM Mes, 75 mM Tris, 0.05% (v/v) Triton X-100, pH adjusted with HCl or NaOH
[2] = test system: Nterm16; assay: kinetics; settings: 37 °C, Constant ionic strength buffer system containing 140 mM NaCl, 25 mM glycine, 25 mM acetic acid, 25 mM Mes, 75 mM Tris, 0.05% (v/v) Triton X-100, pH adjusted with HCl or NaOH
[3] = target: T1, Human neutrophil elastase (human, UniProt P08246 30-267); assay: stopped-flow fluorescence kinetics of substrate hydrolysis (pre-steady-state, fit to a three-step mechanism with DynaFit IV); both in solution; 3.8 µM FRET-peptide, 12.6 nM HNE (12.7 nM in the methods), 25°C, 10 mM Tris-HCl pH 7.4, 100 mM NaCl, with 50 µM heparin; settings: both partners purified
[4] = target: T1, Human neutrophil elastase; assay: stopped-flow fluorescence kinetics of substrate hydrolysis (pre-steady-state, fit to a three-step mechanism with DynaFit IV); both in solution; 3.8 µM FRET-peptide, 12.6 nM HNE, 25°C, 10 mM Tris-HCl pH 7.4, 100 mM NaCl, no heparin; settings: both partners purified
[5] = Free enzyme, no heparin (control)
[6] = Heparin-bound enzyme (50 µM 14 kDa heparin)

T1 sequence (P08246 30-267): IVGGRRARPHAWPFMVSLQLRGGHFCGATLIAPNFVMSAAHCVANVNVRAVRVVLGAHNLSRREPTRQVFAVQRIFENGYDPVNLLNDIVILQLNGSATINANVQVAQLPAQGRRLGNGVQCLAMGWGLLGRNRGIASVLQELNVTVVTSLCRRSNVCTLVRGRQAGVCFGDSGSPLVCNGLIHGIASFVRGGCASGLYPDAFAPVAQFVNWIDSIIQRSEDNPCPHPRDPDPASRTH

Molecule: Human neutrophil elastase (HNE; leukocyte elastase, EC 3.4.21.37) (Homo sapiens)
- pKa [1, 5]: 6.71±0.05
- pKa [1, 6]: 7.04±0.07
- pKa [2, 5]: 8.93±0.05
- pKa [2, 6]: 9.60±0.07

B1: FRET-peptide Abz-AMESVMGYFHRSQ-EDDnp (peptide)
peptide: [2Abz]AMESVMGYFHRSQ-EDDnp
notes: the peptide has Met where TIMP-1 has Cys70 (cleaved bond Val-Met); also called FRET-peptide substrate; FRET substrate; source: synthetic peptide (solid phase, Fmoc; HPLC purified)
- koff [3]: 0.081 s⁻¹
- kon [3]: 820000 M⁻¹ s⁻¹
- koff [4]: 0.25 s⁻¹
- kon [4]: 350000 M⁻¹ s⁻¹

Reference: PMC3121799, “Mechanism of Heparin Acceleration of Tissue Inhibitor of Metalloproteases-1 (TIMP-1) Degradation by the Human Neutrophil Elastase” (PLoS ONE, 2011)
